In patent US20140302123A1:

T1: PTPN4-PDZ (residues G499-N604) (human), P29074
T1 chain: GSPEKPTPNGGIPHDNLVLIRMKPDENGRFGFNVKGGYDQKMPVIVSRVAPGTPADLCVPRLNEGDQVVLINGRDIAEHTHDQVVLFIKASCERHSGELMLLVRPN


Tests used:
[1] = target: T1, PTPN4-PDZ (residues G499-N604) (human), …; assay: NMR titration, 15N-labeled PTPN4-PDZ with unlabeled peptide
[2] = target: T1, PTPN4-PDZ (residues G499-N604) (human), …; assay: NMR titration

Binder	Kd [1] [µM]	fold increase in affinity against Cyto13-att [2] [fold]
LNLGNDPDRGTSI (modifications not checked) [GluD2-13]	128	–
SWESYRSGGEIRL (modifications not checked) [EIRL-13]	1170	–
SNRRVYKKMPSIESDV (modifications not checked) [GluN2A-16]	42	4
